Test results published in patent US7556938B1, “Nucleic acids encoding potassium channel interactors” (Millennium Pharmaceuticals, Inc., priority 1998, dated 2009).

T1: rKv4.3N (Rattus norvegicus, UniProt Q62897)
T1 construct: expressed in transfected cells; host or cells: yeast HF7c (bait), mated with Y187 (fish)
T1 sequence (Q62897 1-180): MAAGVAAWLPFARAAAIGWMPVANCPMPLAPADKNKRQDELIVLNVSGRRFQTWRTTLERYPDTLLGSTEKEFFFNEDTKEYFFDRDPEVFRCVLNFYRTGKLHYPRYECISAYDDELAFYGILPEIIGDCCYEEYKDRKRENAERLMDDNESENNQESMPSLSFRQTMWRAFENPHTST

T2: rKv4.2N (Rattus norvegicus, UniProt Q63881)
T2 construct: the N-terminal domains of Kv4.3, Kv4.2 were expressed as “baits” (Kv4.3N, Kv4.2N, respectively); expressed in transfected cells; host or cells: yeast HF7c (baits), mated with Y187 (fish)
T2 sequence (Q63881 1-184 limits assumed): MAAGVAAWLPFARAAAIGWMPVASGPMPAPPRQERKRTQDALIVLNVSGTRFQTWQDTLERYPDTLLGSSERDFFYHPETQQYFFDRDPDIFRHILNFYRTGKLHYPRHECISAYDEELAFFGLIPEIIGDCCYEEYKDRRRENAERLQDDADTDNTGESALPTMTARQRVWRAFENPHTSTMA

B1: Rat 1p: partial rat PCIP of 267 amino acid residues, similar to human Restin (protein)
chain: LKGARPRVVNSTCSDFNHGSALHIAASNLCLGAAKCLLEHGANPALRNRKGQVPAEVVPDPMDMSLDKAEAALVAKELRTLLEEAVPLSCTLPKVTLPNYDNVPGNLMLSALGLRLGDRVLLDGQKTGTLRFCGTTEFASGQWVGVELDEPEGKNDGSVGGVRYFICPPKQGLFASVSKVSKAVDAPPSSVTSTPRTPRMDFSRVTGKGRREHKGKKKSPSSPSLGSLQQREGAKAEVGDQVLVAGQNRDCAFLWEDRLCSRLLVWH
B2: Rat 7s: rat ortholog of the human vacuolar H(+)-ATPase catalytic subunit A (partial) (protein)
chain: ADSTSRWAEALREISGRLAEMPADSGYPAYLGARLASFYERAGRVKCLGNPEREGSVSIVGAVSPPGGDFSDPVTSATLGIVQVFWGLDKKLAQRKHFPSVNWLISYSKYMRALDEYYDKHFTEFVPLRTKAKEILQEEEDLAEIVQLVGKASLAETDKITLEVAKLIKDDFLQQNGYTPYDRFCPFYKTVGMLSNMISFYDMARRAVETTAQSDNKITWSIIREHMGEILYKLSSMKFKDPVKDGEAKIKADYAQLLEDMQNAFRSLED
B3: Rat 33b07: PCIP of 407 amino acid residues, homologous to SET and Nucleosome Assembly Proteins (protein)
chain: MNGVEGNNELPLANTSTSALVPEDLDLKQDQPLSEETDTVREMEAAGEAGAEGGASPDSEHCDPQLCLRVAENGCAAAAGEGLEDGLSSSKCGDAPLASVAANDSNKNGCQLAGPLSPAKPKTLEASGAVGLGSQMMPGPKKTKVMTTKGAISATTGKEGEAGAAMQEKKGVQKEKKAAGGGKDETRPRAPKINNCMDSLEAIDQELSNVNAQADRAFLQLERKFGRMRRLHMQRRSFIIQNIPGFWVTAFRNHPQLSPMISGQDEDMMRYMINLEVEELKHPRAGCKFKFIFQSNPYFRNEGLVKEYERRSSGRVVSLSTPIRWHRGQEPQAHIHRNREGNTIPSFFNWFSDHSLLEFDRIAEIIKGELWSNPLQYYLMGDGPRRGVRVPPRQPVESPRSFRFQSG
B4: Rat 29x: identical at the amino acid level to rat SOCS-1 (Suppressor Of Cytokine Signaling) (protein)
chain: ARLPAPEHARQQPLLSGPEPGSSARVPVPGVASRRQPRGGKPPSGDGLESGPSPRPLLHARGEAGLHRQSGRVPHTGTAYFADEPTEAQAPGGFCVSPSLLGVRWPACATRTPGSLPLSPPSAQPRTLWPTPPAGPSSRMVARNQVAADNAISPASEPRRRPEPSSSSSSSSPAAPARPRPCPVVPAPAPGDTHFRTFRSHSDYRRITRTSALLDACGFYWGPLSVHGAHERLRAEPVGTFLVRDSRQRNCFFALSVKMASGPTSIRVHFQAGRFHLDGSRETFDCLFELLEHYVAAPRRMLGAPLRQRRVRPLQELCRQRIVAAVGRENLARIPLNPVLRDYLSSFPFQI
B5: Rat 5p: identical to rat Calpactin I light chain or P10 (protein)
chain: MPSQMEHAMETMMLTFHRFAGEKNYLTKEDLRVLMEREFPGFLENQKDPLAVDKIMKDLDQCRDGKVGFQSFLSLVAGLIIACNDYFVVHMKQKK
B6: Rat 19r: identical to Rat phosphatidylinositol (PTDINS) transfer protein alpha (protein)
chain: MVLLKEYRVILPVSVDEYQVGQLYSVAEASKNETGGGEGVEVLVNEPYEKDDGEKGQYTHKIYHLQSKVPTFVRMLAPEGALNIHEKAWNAYPYCRTVITNEYMKEDFLIKIETWHKPDLGTQENVHKLEPEAWKHVEAIYIDIADRSQVLSKDYKAEEDPAKFKSIKTGRGPLGPNWKQELVNQKDCPYMCAYKLVTVKFKWWGLQNKVENFIHKQEKRLFTNFHRQLFCWLDKWVDLTMDDIRRMEEETKRQLDEMRQKDPVKGMTADD
B7: Rat 7q: identical to RAB2 (rat RAS-related protein) (protein)
chain: MAYAYLFKYIIIGDTGVGKSCLLLQFTDKRFQPVHDLTIGVEFGARMITIDGKQIKLQIWDTAGQESFRSITRSYYRGAAGALLVYDITRRDTFNHLTTWLEDARQHSNSNMVIMLIGNKSDLESRREVKKEEGEAFAREHGLIFMETSAKTASNVEEAFINTAKEIYEKIQEGVFDINNEANGIKIGPQHAATNASHGGNQGGQQAGGGCC

Legend:
rKv4.3N = target: T1, rKv4.3N; assay: Yeast two-hybrid binding and specificity test, Kv4.3 N-terminal bait; settings: for preference between rKv4.3N and rKv4.2N in yeast two-hybrid assay: rKv4.3N versus rKv4.2N
Procedure: The first 180 amino acids of rKv4.3 (described in Serdio P. et al. (1996) J. Neurophys 75:2174-2179) were amplified by PCR and cloned in frame into pGBT9 resulting in plasmid pFWA2, (hereinafter “bait”). This bait was transformed into the two-hybrid screening strain HF7c and tested for expression and self-activation. The bait was validated for expression by Western blotting.
(§1) Two-hybrid screens were carried out essentially as described in Bartel, P. et al. (1993) “Using the Two-Hybrid System to Detect Polypeptide-Polypeptide Interactions” in Cellular Interactions in Development: A Practical Approach, Hartley, D. A. ed. Oxford University Press, Oxford, pp. 153-179, with a bait-library pair of rkv4.3 bait-rat mid brain library. A filter disk beta-galactosidase (beta-gal) assay was performed essentially as previously described (Brill et al. (1994) Mol. Biol. Cell. 5:297-312). Clones that were positive for both reporter gene activity (His and beta-galactosidase) were scored and fish, plasmids were isolated from yeast, transformed into E. coli strain KC8, DNA plasmids were purified and the resulting plasmids were sequenced by conventional methods (Sanger F. et al. (1977) PNAS, 74: 5463-67).
(§2) Positive interactor clones were subjected to a binding specificity test where they were exposed to a panel of related and unrelated baits by a mating scheme previously described (Finley R. L. Jr. et al. (1994) PNAS, 91(26):12980-12984). Briefly, positive fish plasmids were transformed into Y187 and the panel of baits were transformed into HF7c. Transformed fish and bait cells were streaked out as stripes on selective medium plates, mated on YPAD plates, and tested for reporter gene activity.

rKv4.2N = target: T2, rKv4.2N; assay: Yeast two-hybrid binding and specificity test, Kv4.2 N-terminal bait
Procedure: as §1, §2

rKv1.1N = target: T3, rKv1.1N (Rattus norvegicus, UniProt P10499); assay: Yeast two-hybrid binding and specificity test, Kv1.1 N-terminal bait
T3 construct: expressed in transfected cells; host or cells: yeast HF7c (baits), mated with Y187 (fish)
Procedure: as §1, §2

T3 sequence (P10499 1-164 limits assumed): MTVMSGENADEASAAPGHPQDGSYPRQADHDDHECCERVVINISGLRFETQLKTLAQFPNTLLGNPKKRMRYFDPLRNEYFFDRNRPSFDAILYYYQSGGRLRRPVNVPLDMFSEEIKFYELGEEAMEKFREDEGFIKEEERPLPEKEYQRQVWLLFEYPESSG

Molecule | binding to rKv4.3N in yeast two-hybrid assay (rKv4.3N) | preference between rKv4.3N and rKv4.2N in yeast two-hybrid assay (rKv4.3N) | binding to rKv4.2N in yeast two-hybrid assay (rKv4.2N) | binding to rKv1.1N in yeast two-hybrid assay (rKv1.1N)
B1 | binds | slight preference for rKv4.3N | binds | does not bind
B2 | binds | preference for rKv4.3N | binds | does not bind
B3 | binds | slight preference for rKv4.2N | binds | does not bind
B4 | binds | slight preference for rKv4.3N | binds | does not bind
B5 | binds |  | binds | does not bind
B6 | binds | slight preference for rKv4.3N | binds | does not bind
B7 | binds | same strength | binds | does not bind
